Changes are numbered by the printed parent chain.

Assay [1] addresses human LILRB2 (human) (UniProt Q8N423). In words: BLI Octet sandwich binning; competitor (antibody #1 on sensor) J-19.
Assay [2] shares this target. Put plainly: BLI Octet sandwich binning; competitor (antibody #1 on sensor) J-11.
Assay [3] shares this target. In words: BLI Octet sandwich binning; competitor (antibody #1 on sensor) J-04. In general terms: BLI is a label-free optical method that tracks binding on a fibre tip over time.
For assay [4] the target is unchanged. Put plainly: BLI Octet sandwich binning; competitor (antibody #1 on sensor) J-03.
The target is the same in assay [5]. In words: BLI Octet sandwich binning; competitor (antibody #1 on sensor) J-07.
The target is the same in assay [6]. Put plainly: BLI Octet sandwich binning; competitor (antibody #1 on sensor) J-17.
The target is the same in assay [7]. In words: BLI Octet sandwich binning; competitor (antibody #1 on sensor) J-16.
For assay [8], the target named is human LILRA4 (human) (UniProt P59901). Put plainly: flow cytometry, LILRA4 CHOs.
Chain of human LILRA4 (human) (P59901 other isoform, or with tags, fused parts or gaps limits assumed): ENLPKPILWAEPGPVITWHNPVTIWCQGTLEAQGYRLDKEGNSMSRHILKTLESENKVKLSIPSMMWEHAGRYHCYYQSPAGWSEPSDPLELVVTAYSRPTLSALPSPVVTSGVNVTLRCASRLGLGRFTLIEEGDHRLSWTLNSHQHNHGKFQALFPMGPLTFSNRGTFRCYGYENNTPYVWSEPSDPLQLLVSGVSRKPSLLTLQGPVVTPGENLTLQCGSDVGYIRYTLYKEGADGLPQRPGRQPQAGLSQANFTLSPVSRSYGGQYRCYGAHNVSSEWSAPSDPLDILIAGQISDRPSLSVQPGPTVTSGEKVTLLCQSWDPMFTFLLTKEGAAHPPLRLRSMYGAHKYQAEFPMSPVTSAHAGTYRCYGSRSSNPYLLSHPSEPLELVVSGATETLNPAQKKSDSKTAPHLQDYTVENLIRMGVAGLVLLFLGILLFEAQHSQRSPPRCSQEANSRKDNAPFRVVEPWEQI
Assay [9] deals with human LILRA1 (human) (UniProt O75019). In words: flow cytometry, LILRA1 CHOs.
Chain of human LILRA1 (human) (O75019 17-489 limits assumed): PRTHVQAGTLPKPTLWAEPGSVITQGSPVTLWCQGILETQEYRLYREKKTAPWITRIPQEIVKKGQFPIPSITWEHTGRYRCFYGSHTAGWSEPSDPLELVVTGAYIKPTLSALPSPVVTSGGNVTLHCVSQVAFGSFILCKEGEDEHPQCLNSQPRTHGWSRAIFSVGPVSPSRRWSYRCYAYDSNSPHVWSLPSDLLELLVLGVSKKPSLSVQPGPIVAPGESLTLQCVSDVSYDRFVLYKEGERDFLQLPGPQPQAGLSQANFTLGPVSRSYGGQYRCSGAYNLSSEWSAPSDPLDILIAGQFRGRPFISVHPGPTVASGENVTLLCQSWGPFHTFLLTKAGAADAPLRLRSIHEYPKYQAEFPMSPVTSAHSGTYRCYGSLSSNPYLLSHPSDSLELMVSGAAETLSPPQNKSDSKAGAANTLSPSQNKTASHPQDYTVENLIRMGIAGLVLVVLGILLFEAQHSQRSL
For assay [10], the target named is human LILRA5 (human) (UniProt A6NI73). In words: flow cytometry, LILRA5 CHOs. A general note: Flow cytometry measures light scatter and fluorescence of single cells or particles in a stream.
Chain of human LILRA5 (human) (A6NI73 42-299 limits assumed): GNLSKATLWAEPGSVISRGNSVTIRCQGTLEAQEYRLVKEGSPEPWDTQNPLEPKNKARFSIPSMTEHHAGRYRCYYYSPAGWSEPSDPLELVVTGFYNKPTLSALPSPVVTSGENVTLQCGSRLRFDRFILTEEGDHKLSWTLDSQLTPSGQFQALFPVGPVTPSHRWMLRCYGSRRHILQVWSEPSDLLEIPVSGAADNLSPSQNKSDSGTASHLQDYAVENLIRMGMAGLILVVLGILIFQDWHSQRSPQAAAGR
Assay [11] addresses human LILRB4 (human) (UniProt Q8NHJ6). In words: flow cytometry, LILRB4 CHOs.
Assay [12] has as its target human LILRB2 (human) (UniProt Q8N423). In words: SPR, SierraSensor MASS-2; antibody captured on anti-human Fc chip, LILRB2 65 to 0.089 nM, triplicates.
Assay [13] shares this target. In words: BLI ForteBio Octet Red96; antibody on anti-human capture sensor, LILRB2 at 50 nM and 5 nM.
Assay [14] has the same target. Put plainly: SPR, SierraSensor MASS-2; antibody captured on anti-human Fc chip, LILRB2 65 to 0.089 nM, duplicates; the reference itself. A general note: In SPR one partner is held on a chip, and binding of the other changes the refractive index at the surface.
For assay [15] the target is unchanged. In words: SPR, SierraSensor MASS-2; antibody captured on anti-human Fc chip, LILRB2 65 to 0.089 nM, duplicates.

B1: J-04 (antibody, human IgG4 S228P, kappa, V domains shown)
VH: QVQLQQSGAELVRPGASVTLSCKASGYTFADYEIHWVKQTPVHGLEWIGAIDPETGGTAYNQKFKGKAILTADKSSSTAYMELRSLTSEDSAVYYCTRYYDYDDAMDYWGQGTSVTVSS
VL: QIVLTQSPAIMSASPGEKVTMTCSASSSVSFMHWYQQKSGTSPKRWIYGTSKLASGVPARFSGSGSGTSYSLTISSMEAEDAATYYCQQWNGNPFTFGSGTKLETKR
For B1, the response of antibody #2 in [1] was 0.54; in assay [2], 0.54; in assay [3], -0.1; in assay [4] it was -0.07; in [5], -0.3; in [6], 0.46. Also, in [7], the response of antibody #2 was -0.31. In assay [8], this molecule came in with a binding (fold over iso) (fold over iso) of 2.07.

B2: J-11 (antibody, human IgG4 S228P, kappa, V domains shown)
VH: QVQLQQSGAELMKPGASVKLSCKATGYILTGYWIEWVKQRPGHGLEWIGEILPGSGSTNYNENFKGKATFTADTSSNTAYMQLSSLTTEDSAIYYCARAVLGYFDYWGQGTTLTVSS
VL: DIVMTQSHKFMSTSVGDRVSITCKASQDVSTAVAWYQQKPGQSPKLLIYWASTRHTGVPDRFTGSGSGTDYTLTISSVQAEDLALYYCHQHYSTYTFGGGTKLEIKR
As to B2, the response of antibody #2 in [1] was 0.28; in assay [2] it was -0.24; in assay [3] it was 0.51; in [4], 0.01; in assay [5], 0.1; in assay [6], -0.27. Further, the response of antibody #2 in [7] is 0.3.

B3: J-17 (antibody, human IgG4 S228P, kappa, V domains shown)
VH: QIQLVQSGPELKKPGETVKISCKASGYTFTTYGLSWVKQTPGKGLKWMGWINTYSGVPTYTDDFKGRFAFSLETSASTAYLQINNLKNEDTATYFCARPYDFDQVGFAYWGQGTLVTVSA
VL: SIVMTQTPKFLLVSAGDRVSITCKASQTVSSDVAWYQQKAGQSPKLLIYYASNRYTGVPDRFTGSGYGTDFTFTISTVQAEDLAVYFCQQDYSSPFTFGGGSKLEIKR
Consider B3, for which the response of antibody #2 was -0.21 in assay [1]; -0.39 in assay [2]; 0.42 in [3]; 0.05 in assay [4]; 0.04 in [5]; -0.11 in [6]. The molecule further yielded a response of antibody #2 in assay [7] of 0.09. In assay [9], this molecule yielded a binding (fold over iso) (fold over iso) of 7.31.

B4: J-19.h4 (antibody, human IgG4 S228P, kappa, V domains shown)
VH: QVTLKESGPALVKPTHTLTLTCTFSGFSLNTYAMGVSWIRQPPGKALEWLASIWWNGNKYNNPSLKSRLTISKDTSKNQVVLTMTNMDPEDTATFYCAHSRIIRFTDYVMDAWGRGTTVTVSS
VL: DIVMTQSPSSLSASVGDTVTITCRASEDIYNDLAWYQQKPGKAPQLLLYNANSLHTGVPSRFSGSGSGTDYTLTISTLQPEDFATYYCQQYYDYPLTFGPGTKVHIKR
B4: the binding (fold over iso) (fold over iso) amounted to 2.14 in [10] and 2.02 in assay [11].

B5: J-19.h5 (antibody, human IgG4 S228P, kappa, V domains shown)
VH: B4 VH with V2I, A10T, H16Q, I71V, S72T, E90V, F95Y, R104A, R115Q, T118L
VL: DIQMTQSPSSLSTSVGDRVTITCRASEDIYNDLAWYQQKPGKAPKLLIYNANSLHTGVASRFSGSGSGTDFTFTISSLQPEDVATYFCQQYYDYPLTFGQGTKLEIKR
One may read the Kd as the concentration at which binding is half-saturated. Low values mean a tighter complex, high ones a looser complex. Broadly, the koff is the first-order rate constant of dissociation. One may read the kon as the rate constant with which the complex forms. In [12], B5 displayed a Fold difference over J-19.h1 of 1.91 fold, a Kd of 1.31 nM, a koff of 0.00115 s⁻¹ and a kon of 876000 M⁻¹ s⁻¹. The molecule further returned a fold higher affinity compared to J-19.h1 in [13] of 2 fold.

B6: J-19.h1 (antibody, human IgG4 S228P, kappa, V domains shown)
VH: B4 VH with V2I, A10T, H16Q, I71V, S72T, E90V, F95Y, R115Q, T118L
VL: B5 VL
Consider B6, for which the Fold difference over J-19.h1 in assay [14] was found to be 1 fold. For the same molecule, in assay [15], the Kd worked out at 2.49 nM, the dissociation rate constant (koff) is 0.00176 s⁻¹ and the kon came out at 705000 M⁻¹ s⁻¹.

B7: J-19.h6 (antibody, human IgG4 S228P, kappa, V domains shown)
VH: B4 VH with V2I, A10T, H16Q, I71V, S72T, E90V, F95Y, R104D, R115Q, T118L
VL: B5 VL
As for B7, in assay [12], the Fold difference over J-19.h1 stood at 3.47 fold, the Kd is 0.718 nM, the koff was found to be 0.000592 s⁻¹ and the kon turned out to be 825000 M⁻¹ s⁻¹.

B8: J-19.h7 (antibody, human IgG4 S228P, kappa, V domains shown)
VH: B4 VH with V2I, A10T, H16Q, I71V, S72T, E90V, F95Y, R104E, R115Q, T118L
VL: B5 VL
Take B8: in assay [15], the Fold difference over J-19.h1 turned out to be 2.73 fold, the Kd was determined as 0.912 nM, the koff amounted to 0.000788 s⁻¹ and the kon is 865000 M⁻¹ s⁻¹.

B9: J-19 (antibody, human IgG4 S228P, kappa, V domains shown)
VH: QVTLKESGPGILQPSHTLSLTCSFSGFSLNTYAMGVSWIRQPSGKGLEWLASIWWNGNKYNNPSLKSRLTVSKDTSNNQAFLKVTSVDTADTATYYCAHSRIIRFTDYVMDAWGQGASVTVSS
VL: DIQMTQSPASLSTFLGEPVTIECRASEDIYNDLAWYQQKPGKSPQLLIYNANSLHTGVPSRFSGSGSGTQYSLKINSLQSEDVASYFCQQYYDYPLTFGSGTKLEIKR
With B9, the response of antibody #2 in [1] was -0.21; in assay [2], 0.71; in assay [3], 0.67; in [4] it was 0.15; in [5] it was 0.27; in assay [6], -0.1. Besides, the response of antibody #2 in assay [7] came out at 0.47.

Source of the values: US20200339690A1.
